{"source": "patent US11149077B2", "about": "“Targeted therapeutics based on engineered proteins for tyrosine kinases receptors, including IGF-IR” (BRISTOL-MYERS SQUIBB COMPANY, priority 2006, dated 2021)", "molecules": {"B1": {"name": "385A08-PEG20-385A08: two 385A08 (SEQ ID NO: 203) domains coupled via Cys97 to a linear 20 kDa bifunctional PEG (conjugate)", "chain 1": "GVSDVPRDLEVVAATPTSLLISWSARLKVARYYRITYGETGGNSPVQEFTVPKNVYTATISGLKPGVDYTITVYAVTRFRDYQPISINYRTEIDKPCQ", "chain 2": "B1 chain 1", "modifications": "20 kDa bifunctional PEG via Cys97"}}, "key": {"[1]": {"tested_on": "human plasmacytoma cell line NCI-H929", "test": "NCI-H929 cell proliferation assay (serum mediated proliferation)", "assay_type": "cell-based", "conditions": "at all concentrations tested", "protocol": "The human plasmacytoma cell line NCI-H929 (ATCC, Manassas, Va.) was plated in 96 well plates at a concentration of either 10000 or 25000 cells per well in DMEM (Invitrogen, Carlsbad, Calif.) containing 10% fetal bovine serum (Hyclone, Logan, Utah) containing various concentrations of IGF-IR antagonists. Cells were allowed to proliferate for 72 hours at 37° C., 5% CO2. After the proliferation period, cells were exposed to 20 μL of Cell Titer 96 Aqueous Proliferation Reagent (Promega, Madison, Wis.) and allowed to incubate for an additional four hours. Absorbance at 490 nm was measured on a Spectramax Plus 384 (Molecular Devices, Sunnyvale, Calif.), and the resulting data were analyzed using SigmaPlot (Systat Software, Point Richmond, Calif.)."}, "[2]": {"tested_on": "RH41 sarcoma xenografts", "test": "In vivo antitumor activity in RH41 sarcoma xenografts", "conditions": "40 mg/kg, TIWx3, 20 ip", "protocol": "*Tumor growth inhibition and probability values calculated on day 39. ^aVehicle was 80% PEG400, 20% dH2O. ^bVehicle was PBS. ^cAverage weight change for each group is the mean difference between weight at the start of treatment (Day 20) and after the end of treatment (Day 42). TVDT was calculated for a size of 500 mg Abbreviations used are as follows: po, oral route; ip, intraperitoneal route; LCK, gross log cell kill calculated as LCK=T−C/(3.32×TVDT) where T-C is the difference in time in days for the treated tumors (T) to reach a predetermined size (tumor target size) relative to the vehicle control group (C) divided by the tumor volume doubling time (TVDT) multiplied by 3.32.\nTumors were propagated in nude mice. Tumor passages occurred every four weeks for human RH41 xenografts. With regard to efficacy testing human tumor xenografts were implanted in nude mice. All tumor passages were subcutaneous (sc).\nAntitumor activity was evaluated in terms of: a) cures, and for the murine tumor models, increases in lifespan reflected by the relative median survival time (MST) of treated (T) versus control (C) groups (i.e. % T/C values); and b) primary tumor growth inhibition determined by calculating the relative median times for T and C mice to grow tumors of a predetermined “target” size (1 gm for all sc tumor models described) and expressed as T-C values, in days. The definition of a cured mouse was one whose tumor was undetectable, or <35 mg, when assessed more than 10 tumor volume doubling times (TVDTs) post-treatment. The activity criterion for tumor inhibition/reduction was a statistically significant delay in primary tumor growth consistent with 1 gross log cell kill (LCK). The following formula was employed to calculate LCK: LCK=T−C/(3.32×TVDT)\nWhere, TVDT=median time (days) for control tumors to reach target size—median time (days) for control tumors to reach half the target size. […] The maximum tolerated dose (MTD) is defined as the dose level immediately […] which excessive toxicity (i.e. more than one death) occurred. […] Statistical evaluations of data were performed using Gehan's generalized Wilcoxon test (Gehan, Biometrika 52:203-223, 1965). Western Blot Analysis of 385A08-Fc"}, "[3]": {"target": "T1, human IGF-IR (Homo sapiens, UniProt P08069)", "T1 construct": "The extracellular domain of human IGF-IR (aa 1-932) was cloned into a mammalian expression vector; made in house", "test": "Surface plasmon resonance (BIAcore) binding kinetics and affinity on immobilized IGF-IR", "protocol": "The binding kinetics of fibronectin-based scaffold proteins binding proteins to the target was measured using BIAcore 2000 or 3000 biosensors (Pharmacia Biosensor). A capture assay was developed utilizing an IGF-IR-Fc fusion. A similar reagent had been described by Forbes et al. (Forbes et al. 2002, European J. Biochemistry, 269, 961-968). The extracellular domain of human IGF-IR (aa 1-932) was cloned into a mammalian expression vector containing the hinge and constant regions of human IgG1. Transient transfection of the plasmid produced a fusion protein, IGF-IR-Fc which was subsequently purified by Protein A chromatography and captured on Protein A immobilized on Biasensor CM5 chips by amine coupling. The kinetic analysis involved the capture of IGF-IR-Fc on Protein A followed by injection of the fibronectin-based scaffold protein in solution and regeneration of the Protein A surface by glycine pH 2.0. Sensorgrams were obtained at each concentration and were evaluated using a program Biaevaluation, BIA Evaluation 2.0 (BIAcore), to determine the rate constants ka (kon) and kd (koff) The dissociation constant, KD was calculated from the ratio of rate constants koff/kon. Typically, a concentration series (2 uM to 0 uM) of purified fibronectin-based scaffold protein was evaluated for binding to protein A captured human IGF-IR-Fc fusion protein."}}}
{"molecule": "B1", "values": [{"measurement": "inhibition of cell growth", "setting": "[1]", "value": "approximately 100%"}, {"measurement": "Outcome by (% TGI)", "setting": "[2]", "value": "A (A % TGI value of >50% was considered active)"}, {"measurement": "% TGI", "setting": "[2]; calculated on day 39", "value": 66, "unit": "%"}, {"measurement": "LCK", "setting": "[2]; gross log cell kill", "value": 0.6}, {"measurement": "faster on-rate (ka) relative to unmodified 385A08", "setting": "[3]", "value": "approximately two-fold"}, {"measurement": "off-rate (kd) relative to unmodified 385A08", "setting": "[3]", "value": "slightly decreased"}, {"measurement": "ka", "setting": "[3]; Table 10, PEGylated variants", "value": "15 1/M*s × 10^+6"}, {"measurement": "kd", "setting": "[3]; Table 10, PEGylated variants", "value": "0.9 1/s × 10^−4"}]}
